{"source": "paper PMC2895429", "target": "cardiac ryanodine receptor (RyR2) in permeabilized rat ventricular myocytes (rat (endogenous in ventricular myocytes)) (UniProt B0LPN4)", "sequence (B0LPN4 whole entry)": "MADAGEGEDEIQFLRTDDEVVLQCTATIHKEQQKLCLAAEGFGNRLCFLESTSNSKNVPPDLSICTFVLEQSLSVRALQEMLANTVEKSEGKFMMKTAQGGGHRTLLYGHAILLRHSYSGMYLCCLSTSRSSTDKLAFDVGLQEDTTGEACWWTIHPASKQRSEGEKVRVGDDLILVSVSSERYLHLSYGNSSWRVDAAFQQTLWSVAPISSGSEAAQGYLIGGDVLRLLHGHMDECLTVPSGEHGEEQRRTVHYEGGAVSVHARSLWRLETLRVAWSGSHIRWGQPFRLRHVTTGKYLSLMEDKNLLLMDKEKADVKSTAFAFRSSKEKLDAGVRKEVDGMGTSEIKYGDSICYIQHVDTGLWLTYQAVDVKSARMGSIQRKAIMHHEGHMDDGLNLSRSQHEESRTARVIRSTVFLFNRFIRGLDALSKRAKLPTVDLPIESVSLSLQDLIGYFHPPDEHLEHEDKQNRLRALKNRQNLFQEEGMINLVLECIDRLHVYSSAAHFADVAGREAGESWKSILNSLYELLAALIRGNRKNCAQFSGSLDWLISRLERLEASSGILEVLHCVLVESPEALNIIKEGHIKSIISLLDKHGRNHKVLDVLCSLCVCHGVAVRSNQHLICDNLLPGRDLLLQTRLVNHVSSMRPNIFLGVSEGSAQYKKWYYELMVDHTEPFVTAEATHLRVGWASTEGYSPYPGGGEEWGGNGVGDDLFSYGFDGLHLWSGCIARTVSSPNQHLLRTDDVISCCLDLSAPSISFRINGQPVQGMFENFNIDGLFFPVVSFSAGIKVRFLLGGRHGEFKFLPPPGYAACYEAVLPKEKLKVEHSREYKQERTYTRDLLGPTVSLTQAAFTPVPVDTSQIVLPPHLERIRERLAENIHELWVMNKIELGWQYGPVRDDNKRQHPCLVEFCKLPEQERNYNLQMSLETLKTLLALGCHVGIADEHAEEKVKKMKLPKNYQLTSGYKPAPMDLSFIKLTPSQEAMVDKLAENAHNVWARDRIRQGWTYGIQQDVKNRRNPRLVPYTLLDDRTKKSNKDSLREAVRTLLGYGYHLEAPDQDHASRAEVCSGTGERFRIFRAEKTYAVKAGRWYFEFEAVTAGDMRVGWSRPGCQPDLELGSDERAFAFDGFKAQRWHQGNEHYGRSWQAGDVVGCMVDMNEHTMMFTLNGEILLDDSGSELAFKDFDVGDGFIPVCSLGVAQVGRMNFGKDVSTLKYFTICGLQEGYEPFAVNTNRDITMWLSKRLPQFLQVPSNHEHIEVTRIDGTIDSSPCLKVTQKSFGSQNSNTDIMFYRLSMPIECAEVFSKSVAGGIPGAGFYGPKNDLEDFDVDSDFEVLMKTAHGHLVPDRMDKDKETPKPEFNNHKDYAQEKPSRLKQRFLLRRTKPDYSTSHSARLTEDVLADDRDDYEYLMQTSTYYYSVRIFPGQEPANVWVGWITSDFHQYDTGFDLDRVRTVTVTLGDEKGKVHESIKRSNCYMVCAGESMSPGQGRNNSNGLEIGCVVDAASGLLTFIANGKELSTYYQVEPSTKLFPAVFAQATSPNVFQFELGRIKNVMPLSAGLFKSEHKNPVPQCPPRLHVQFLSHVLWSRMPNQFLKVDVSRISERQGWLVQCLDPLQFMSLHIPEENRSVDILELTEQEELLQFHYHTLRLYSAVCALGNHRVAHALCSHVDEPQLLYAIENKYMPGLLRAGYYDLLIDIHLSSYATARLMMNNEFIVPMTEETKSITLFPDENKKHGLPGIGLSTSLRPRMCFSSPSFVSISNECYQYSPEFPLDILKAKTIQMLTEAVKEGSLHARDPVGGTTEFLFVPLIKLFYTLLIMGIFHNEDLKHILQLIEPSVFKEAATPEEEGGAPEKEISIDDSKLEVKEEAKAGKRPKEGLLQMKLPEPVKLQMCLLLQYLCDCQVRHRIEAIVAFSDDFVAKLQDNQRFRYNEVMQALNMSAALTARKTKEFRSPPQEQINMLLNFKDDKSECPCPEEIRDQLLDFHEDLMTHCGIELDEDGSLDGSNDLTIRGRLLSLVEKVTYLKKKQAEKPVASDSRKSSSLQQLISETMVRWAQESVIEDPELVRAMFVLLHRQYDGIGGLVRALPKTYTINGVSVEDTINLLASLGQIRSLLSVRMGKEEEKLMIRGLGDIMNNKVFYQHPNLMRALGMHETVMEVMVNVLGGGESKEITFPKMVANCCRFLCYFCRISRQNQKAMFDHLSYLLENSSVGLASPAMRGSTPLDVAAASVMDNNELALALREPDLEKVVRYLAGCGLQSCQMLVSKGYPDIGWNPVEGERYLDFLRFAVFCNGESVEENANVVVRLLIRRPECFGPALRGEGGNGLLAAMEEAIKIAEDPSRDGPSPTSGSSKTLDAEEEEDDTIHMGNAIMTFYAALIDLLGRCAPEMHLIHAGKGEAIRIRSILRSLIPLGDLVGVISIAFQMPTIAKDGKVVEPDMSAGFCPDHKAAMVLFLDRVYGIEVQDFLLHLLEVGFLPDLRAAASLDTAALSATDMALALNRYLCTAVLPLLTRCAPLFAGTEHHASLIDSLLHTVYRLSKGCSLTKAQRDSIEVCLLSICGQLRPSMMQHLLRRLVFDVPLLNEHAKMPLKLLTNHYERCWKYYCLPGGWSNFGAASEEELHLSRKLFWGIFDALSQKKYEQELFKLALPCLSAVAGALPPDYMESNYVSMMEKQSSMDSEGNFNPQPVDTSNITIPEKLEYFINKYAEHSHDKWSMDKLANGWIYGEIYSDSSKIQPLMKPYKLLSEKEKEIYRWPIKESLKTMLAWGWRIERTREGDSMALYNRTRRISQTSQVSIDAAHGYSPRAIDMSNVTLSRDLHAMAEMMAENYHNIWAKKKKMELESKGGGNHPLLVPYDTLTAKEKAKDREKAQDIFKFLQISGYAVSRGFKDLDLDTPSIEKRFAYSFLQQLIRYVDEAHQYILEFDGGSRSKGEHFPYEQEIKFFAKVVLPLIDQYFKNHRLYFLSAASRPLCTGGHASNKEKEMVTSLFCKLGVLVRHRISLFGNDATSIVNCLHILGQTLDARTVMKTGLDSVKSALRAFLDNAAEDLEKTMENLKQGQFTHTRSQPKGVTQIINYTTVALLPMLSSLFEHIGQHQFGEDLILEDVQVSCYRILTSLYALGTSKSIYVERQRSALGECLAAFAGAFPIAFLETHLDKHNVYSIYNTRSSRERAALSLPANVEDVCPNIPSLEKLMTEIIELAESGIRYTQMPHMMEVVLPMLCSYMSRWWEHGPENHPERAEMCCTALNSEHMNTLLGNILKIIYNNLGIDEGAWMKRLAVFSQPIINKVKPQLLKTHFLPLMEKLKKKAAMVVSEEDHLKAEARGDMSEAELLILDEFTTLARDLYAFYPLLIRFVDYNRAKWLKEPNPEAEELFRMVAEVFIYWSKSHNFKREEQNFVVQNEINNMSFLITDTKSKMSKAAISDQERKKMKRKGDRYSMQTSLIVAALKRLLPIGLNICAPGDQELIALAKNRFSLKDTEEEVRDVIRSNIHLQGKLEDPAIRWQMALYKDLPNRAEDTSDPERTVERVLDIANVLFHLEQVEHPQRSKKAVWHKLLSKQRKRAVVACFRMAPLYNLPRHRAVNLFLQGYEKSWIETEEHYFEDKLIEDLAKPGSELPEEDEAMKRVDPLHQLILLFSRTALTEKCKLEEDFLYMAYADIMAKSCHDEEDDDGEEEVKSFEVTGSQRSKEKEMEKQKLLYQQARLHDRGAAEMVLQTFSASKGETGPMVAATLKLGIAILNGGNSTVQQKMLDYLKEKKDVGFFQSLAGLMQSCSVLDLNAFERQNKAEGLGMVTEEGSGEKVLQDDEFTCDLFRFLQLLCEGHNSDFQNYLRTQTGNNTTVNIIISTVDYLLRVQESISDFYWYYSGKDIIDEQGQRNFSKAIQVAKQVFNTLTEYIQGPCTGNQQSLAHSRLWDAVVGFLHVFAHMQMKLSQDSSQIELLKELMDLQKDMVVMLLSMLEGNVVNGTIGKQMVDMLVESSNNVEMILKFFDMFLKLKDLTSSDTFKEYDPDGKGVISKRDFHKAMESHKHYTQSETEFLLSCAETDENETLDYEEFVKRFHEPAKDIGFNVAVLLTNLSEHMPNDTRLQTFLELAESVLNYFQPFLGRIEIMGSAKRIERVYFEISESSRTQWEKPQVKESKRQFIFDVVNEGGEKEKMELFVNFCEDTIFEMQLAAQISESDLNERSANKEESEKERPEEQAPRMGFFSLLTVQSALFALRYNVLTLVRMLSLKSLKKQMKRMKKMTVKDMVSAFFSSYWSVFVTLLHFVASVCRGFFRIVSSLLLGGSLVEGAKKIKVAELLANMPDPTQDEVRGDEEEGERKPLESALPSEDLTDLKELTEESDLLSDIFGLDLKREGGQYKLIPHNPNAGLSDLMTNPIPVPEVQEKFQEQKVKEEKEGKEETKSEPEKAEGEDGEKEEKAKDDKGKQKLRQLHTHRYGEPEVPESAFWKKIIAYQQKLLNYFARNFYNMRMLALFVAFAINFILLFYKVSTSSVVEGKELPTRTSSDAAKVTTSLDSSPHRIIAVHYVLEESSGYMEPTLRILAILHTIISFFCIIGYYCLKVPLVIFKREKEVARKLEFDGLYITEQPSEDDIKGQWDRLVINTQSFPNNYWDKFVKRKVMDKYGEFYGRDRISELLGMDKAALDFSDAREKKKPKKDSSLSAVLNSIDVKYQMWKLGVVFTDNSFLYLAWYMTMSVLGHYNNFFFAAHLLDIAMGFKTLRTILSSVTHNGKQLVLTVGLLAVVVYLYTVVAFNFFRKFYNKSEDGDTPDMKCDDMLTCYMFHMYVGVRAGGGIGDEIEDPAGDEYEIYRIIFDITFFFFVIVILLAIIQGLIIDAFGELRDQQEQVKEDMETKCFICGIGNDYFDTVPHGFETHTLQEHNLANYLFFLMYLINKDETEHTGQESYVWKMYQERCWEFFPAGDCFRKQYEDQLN"}
{"substance": "non-fluorescent wild type FKBP12.6 (from UniProt P68106 1-108) (natural protein)", "values": [{"measurement": "decrease in Ca spark amplitude in permeabilized rat myocytes", "result": 15, "unit": "%"}, {"measurement": "decrease in resting Ca spark frequency (CaSpF) in permeabilized rat myocytes", "result": 24, "unit": "%"}]}
